Data from a protein production outcome set (Wang et al. 2014).

Assay: label from the status in PepcDB records

Row | Sequence | protein production
1 | MASNSSSCPTPGGGHLNGYPVPPYAFFFPPMLGGLSPPGALTTLQHQLPVSGYSTPSPATIETQSSSSEEIVPSPPSPPPLPRIYKPCFVCQDKSSGYHYGVSACEGCKGFFRRSIQKNMVYTCHRDKNCIINKVTRNRCQYCRLQKCFEVGMSKESVRNDRNKKKKEVPKPECSESYTLTPEVGELIEKVRKAHQETFPALCQLGKYTTNNSSEQRVSLDIDLWDKFSELSTKCIIKTVEFAKQLPGFTTLTIADQITLLKAACLDILILRICTRYTPEQDTMTFSDGLTLNRTQMHNAGFGPLTDLVFAFANQLLPLEMDDAETGLLSAICLICGDRQDLEQPDRVDMLQEPLLEALKVYVRKRRPSRPHMFPKMLMKITDLRSISAKGAERVITLKMEIPGSMPPLIQEMLENSEGLDTLSGQPGGGGRDGGGLAPPPGSCSPSLSPSSNRSSPATHSP | not failed
2 | FLILLRKTLEQLQEKDTGNIFSEPVPLSEVPDYLDHIKKPMDFFTMKQNLEAYRYLNFDDFEEDFNLIVSNCLKYNAKDTIFYRAAVRLREQGGAVLRQARRQAEKMG | not failed
3 | MNALKGRDILALGFMTFALFVGAGNIIFPPIVGLQSGPHVWLAALGFLITAVGLPVITVIALAKVGGSVDALSHPIGRYAGGLLAAVCYLAVGPLFAIPRTATVSFEVGVVPLLGESGTALFVYSLAYFLLALAISLYPGRLLDTVGRFLAPLKILALAILGVAAFLWPAGPIGTAQPEYTQAAFSQGFVNGYLTMDTLAALVFGIVIVNAIRSRGVQSPRLITRYAIVAGLIAGVGLVLVYVSLFRLGAGSHAIAADASNGAAVLHAYVQHTFGSLGSSFLAGLIALACLVTAVGLTCACAEYFCQRLPLSYRSLVIILAGFSFIVSNLGLTKLIQVSIPVLTAIYPPCIVLVALSFCIGLWHSATRILAPVMLVSLAFGVLDALKAAGLGQDFPQWLLHLPLAEQGLAWLIPSVATLAACSLVDRLLGKPAQVAA | failed
4 | MMRQPRARTMTMRDDIRDLPANDDRMTRFLGGSPMAVAFRLILMSILVGVVLAAIGLDPWNIITSIRLLFERIWDLGFDAINGLWRYFLLGAVIVIPIWLLTRLASTPRGR | failed
5 | MTFPSVALVVVYVGGLVILGFGMAKIVYVPMALYFDWLYRSICARHRYSVLSDRPLVSVIVPGYNEAVVITGCVESILASRYLRLEVILVDDGSTDETASIMEGLAQQYDRVRFLSQANAGKGAALNCGIAAALGDILMFVDADGVFAPDTLIHMLEGFDDPKVGAVCGDDRPVNLDRLQTMMLAILSHVGTGLVRRALSLMNCLPIVSGNIGAFRSDLVRELGGFHEDTLGEDLELTWRVYKAGYRVRFQPKALVYAESPSTMGGLWRQRVRWSRGLLQTLRLHSGMLGSRRYGMFGAFLVFNAITMVLIPILQLVVLALLPFLYVAGMGPVPAEVLAILGWLGVFVSLALIVFSVGLNRSWRDLRFLWTLPLWPFYSVFVGLALASAIVKEIRGSPARWNKLQRTGIKSVTATHSVTSTDVSQRQEAHA | failed
6 | EPPDGVRIVPVTDRAGVDLVADVHEKAFGTDSTRMRHQLLAQVTDDPDAVVAVVALAGDEPVSAARMELVPGTRFAGLWGGGTVEGERGRGIYRALVAHRAKVAADRGYRYVQVDATSQSRPVLARLGFEPLTTTTPYVS | failed
7 | MPEQQLADLSQEVAASGDSIAFAADFAVIVVVATVIGLLARQLGQPTIVAYILTGVVLGPVALDVVTQEGLVDVMAELGLGFLLFLLGLKMRFDDIREILAPITNVAIGQTVLQTALAFLVALLLGFATDEILVIALATVFGATPVIVKVLTDKDEITTLPGKIDVGVLIVQDIYLVVVLALFGAEQLGDAGEIATTLGVIFVMMSFIGLFSLASSRYLLPHLFERIANNKDVFLIVAIAWAFLFIAIAEGFDLSVEVGAFLAGLSLAQLPYSKELQDRITPITDFFILVFFASIGLQIESVGSLLTHWQEALIASVVLMVGNFWIMFYLIDREGFGPETSFLGSINMVQVSEFSLVVGALAFQQGYIGADVLGYLTLMALLTMTASTYIILYNHAIYERVAPWIRRISSGDGIDEGLPEYENHAVAIGYDEVTEKALPVLDEAFEEVVIIDRNTEHIAEIREAGEYESIFGDFRHKEVRKASNLKEAEFVLSSSVQREINEALLQETADDTPVFVEAERIADAHRLYEAGASYVVMPPHLAAEKLGEYLELYLTDQSVFHTRIQDDIEQIRRRASQATTRRRMASDTGVDLRTSGGDDD | failed
